Reference: US20190185865A1, “USE OF PROKARYOTIC TRANSCRIPTIONAL ACTIVATORS AS METABOLITE BIOSENSORS IN EUKARYOTIC CELLS” (Danmarks Tekniske Universitet, priority 2016, published 2019)
Where two headings read alike, the source gives them in different places.

Experiments:
[1] = test system: 209 bp_CYC1p_T1 promoter; assay: LTTR-mediated activation of GFP expression from 209 bp_CYC1p_T1 reporter promoter in yeast, without ligand; type: cell-based, Saccharomyces cerevisiae; settings: LTTR expressed from strong TDH3 promoter
Method: (§1) Events were analyzed using FlowJo software (TreeStar Inc.).
The genetic device developed in this study represents to the best of our knowledge the first example of transplanting a prokaryotic transcriptional activator into a eukaryotic chassis and successfully using it to activate gene expression without the need for modifying the protein beyond codon optimization. […] To test the generality of the biosensor design for onboarding other small-molecule binding transcriptional activators as biosensors in yeast we selected four other candidates from the LTTR family; FdeR from Herbaspirillum seropedicae, PcaQ from Sinorhizobium meliloti, ArgP from Escherichia coli, and MdcR from Klebsiella pneumonia, with co-inducers naringenin, protocatechuic acid (PCA), L-arginine, and malonic acid, respectively. In this proof-of-principle study we selected the four candidates based on a minimal set of information, including knowledge about operator sequences, experimental evidence for ligand-inducible control of target operons, and their mode-of-action within native chassis (ie. activation, FIG. 1). Furthermore all of these metabolites can passively diffuse across the yeast plasma membrane, with the exception of malonic acid, which requires the expression of the dicarboxylic acid transporter MAE1 from Schizosaccharomyces pombe. […]

[2] = test system: CYC1 promoter with BenM operator (BenO); settings: BenM from TEF1 promoter
Method: Cells grown for 24 h in control (mineral medium, pH 4.5) or inducing medium (mineral medium pH 4.5+1.4 mM CCM, 1.4 mM protocatechuic acid, 10 mM malonic acid, 0.2 mM naringenin, or 50 mM L-arginine) were diluted into PBS to arrest cell growth. Cells were then analyzed by flow cytometry using a Fortessa flow cytometer (Becton Dickinson) with a blue laser (488 nm), for validation of single strains. For each strain 10,000 single-cell events were recorded. Events were analyzed using FlowJo software (TreeStar Inc.). The fluorescence arithmetic mean of the gated cell population was calculated, and the fold-change determined by dividing the mean fluorescence of the induced (ON) state with the mean fluorescence of the control (OFF) state. For flow cytometry for CCM and naringenin producing cells we tested mean fluorescence intensities from 10,000 cells pr. strain following 72 and 48 h, respectively. The data represent the average of three (n=3) biological replicates and error bars correspond to the standard deviation between these measurements.
Initially, BenO was introduced into the 491 bp CYC1 promoter immediately upstream of one of the two TATA boxes—TATA-1β (designated 491 bp_CYC1p_BenO_T1) or TATA-2α (designated 491 bp_CYC1p_BenO_T2), or upstream of both (designated 491 bp_CYC1p_BenO_T1/T2)(FIG. 2a). Outputs from these engineered promoters were compared by flow cytometry to expression from the native CYC1p (491 bp_CYC1p) using GFP as the reporter (FIG. 1a and FIG. 2a).

[3] = test system: BenO-containing human cytomegalovirus (CMV) promoter; settings: 24 h, GFP normalized by RFP; p<0.05 (t-test)
Method: CHO cells were transfected with a plasmid with the BenO-containing human cytomegalovirus (CMV) promoter controlling the expression of GFP as well as an empty vector (− BenM) or a vector expressing BenM (+ BenM). Total GFP expression was measured after 24 h, and normalized by total RFP expression. Average and standard deviation are based on three biological replicates. *; p<0.05 (t-test).
For testing the reporter promoter design with other promoter backbones AND in another eukaryotes, Chinese hamster ovary cells was transformed using the human cytomegalovirus promoter backbone (CMV) instead of the CYC1 promoter backbone used in yeast.
Just as in the case with the yeast design using CYC1 promoter as a backbone, the present inventors put the binding site (benO) for the prokaryotic transcriptional activator BenM 6 bp upstream of the TATA box the CMV promoter and scored reporter gene activity (GFP fluorescence) in the presence and absence of the transcriptional activator BenM.

[4] = target: T1, BenM (Acinetobacter baylyi, UniProt O68014); assay: Screening 17 yeast strains with BenO at different positions upstream of TATA1 of 209 bp CYC1p; type: cell-based; parameters: expressed in transfected cells; promoters TDH3p, TEF1p, RNR2p or REV1p; settings: BenM from REV1p, 1.4 mM CCM, 24 h
T1 sequence (O68014 whole entry, looked up): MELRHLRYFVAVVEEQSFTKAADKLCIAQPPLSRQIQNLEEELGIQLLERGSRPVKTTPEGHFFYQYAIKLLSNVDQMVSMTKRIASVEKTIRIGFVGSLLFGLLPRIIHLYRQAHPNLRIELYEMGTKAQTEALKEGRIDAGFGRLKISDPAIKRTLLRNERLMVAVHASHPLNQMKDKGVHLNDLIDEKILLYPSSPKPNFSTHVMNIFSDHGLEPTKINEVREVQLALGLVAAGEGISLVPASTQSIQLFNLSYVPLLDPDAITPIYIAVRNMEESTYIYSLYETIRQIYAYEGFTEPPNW
Method: FIG. 14. Screening 17 yeast strains expressing BenM from the REV1p in combination with CYC1p reporter promoter of 209 bp with BenO placed at different positions upstream of TATA1. The fold induction (mean±s.d.) was calculated by dividing mean fluorescence intensity (MFI) in medium with 1.4 mM CCM by the MFI in control medium as measured by flow cytometry after 24 h of growth for three biological replicates.
In addition to this, the present inventors also tested 17 different positions for positioning of the BenM binding site (benO).

[5] = target: T1, BenM; assay: CCM-induced GFP expression in yeast strains combining BenM expression cassettes and CYC1p reporter promoter variants (flow cytometry); type: cell-based, Saccharomyces cerevisiae; parameters: expressed in transfected cells; host or cells: Saccharomyces cerevisiae CEN.PK113-5A, chromosomal integration; promoters TDH3p, TEF1p, RNR2p or REV1p; settings: 30° C. vs 37° C.
Description: Strains, chemicals and media. Saccharomyces cerevisiae CEN.PK102-5B (MATa ura3-52 his3Δ1 leu2-3/112 MAL2-8^c SUC2), CEN.PK113-5A (MATa, trp1 his3Δ1 leu2-3/112 MAL2-8^c SUC2) and CEN.PK113-7D (wild type, MATa MAL2-8^c SUC2) strains were obtained from Peter Kotter (Johann Wolfgang Goethe-University Frankfurt, Germany). In principal any other yeast strains may be used, such as one obtained from public repository EuroScarf. EasyClone plasmids used in this work are described in Jensen, N. B. et al. EasyClone: method for iterative chromosomal integration of multiple genes in Saccharomyces cerevisiae. FEMS Yeast Res. 14, 238-48 (2014). Escherichia coli strain DH5a was used as a host for cloning and plasmid propagation. The chemicals and Pfu TURBO DNA polymerase were commercially obtained (Sigma-Aldrich and Agilent Technologies Inc., respectively). All acids used were >97% in purity. S. cerevisiae cells were grown at 30° C. in synthetic complete medium as well as drop-out media and agar plates were prepared using pre-mixed drop-out powders (Sigma-Aldrich). Mineral medium was freshly prepared as described previously. For all media containing diacids, 1.4 mM of the individual diacids were dissolved in mineral medium and pH adjusted to 4.5 before sterile filtration. […]
as §1

B1: BenM: CCM-inducible LysR-type transcriptional activator from Acinetobacter sp ADP1, codon-optimized for yeast (protein, UniProt O68014 1-304, looked up)
HTH-type transcriptional …: T1 sequence (O68014 whole entry, looked up)
modifications: codon-optimized for yeast
[1]
  activation of GFP expression compared to yeast cells without expression of an LTTR: 8.1 ×
[2]; 491 bp_CYC1p_BenO_T1/T2, no CCM
  induction of expression compared to promoter activity without co-expression of BenM: 5 fold
[2]; 491 bp_CYC1p_BenO_T1, no CCM
  induction of expression compared to promoter activity without co-expression of BenM: 20 fold
[2]; 491 bp_CYC1p_BenO_T2, no CCM
  reduction in expression upon co-expression of BenM: 30%
[2]; native 491 bp CYC1p
  effect of BenM on expression of native CYC1p without BenO: did not increase expression
[3]
  reporter (GFP) expression in CHO with vs without BenM: activates reporter expression
[4]
  response with BenO at 17 different positions upstream of TATA box: Only position 6 upstream of the TATA box gave a significant response
[5]
  dynamic range in output by temperature: higher dynamic range in output at 30 °C compared to 37 °C
